Here are results for two molecules from US20080317723A1, “LYMPHATIC ENDOTHELIAL CELLS MATERIALS AND METHODS” (VEGENICS LIMITED, priority 2001, published 2008).

Assay [1] deals with VEGFR-3 expressing lymphatic endothelial cells. The assay can be described thus: Culture and proliferation (PCNA) of isolated VEGFR-3 positive lymphatic endothelial cells. Conditions: complete medium with 5% serum supplemented with VEGF 10 ng/ml or VEGF-C 100 ng/ml. It is filed as cell-based, human. As for the experimental part: In order to compare the effects of the VEGFs on the survival of lymphatic versus blood vascular endothelial cells, specific antibodies and magnetic microbeads were used to isolate and to culture the VEGFR-3 positive and negative cells. Briefly, in this protocol, three separate sets of VEGFR-3 expressing lymphatic endothelial cells were cultured: a first set was cultured in complete medium containing 5% serum, the second set was cultured in complete medium containing 5% serum and supplemented with VEGF (10 ng/ml,) and the third set was cultured in complete medium containing 5% serum supplemented with VEGF-C (100 ng/ml). The VEGFR-3 positive cells were grown for five days after sorting in serum or supplemented with VEGFC and then stained for podoplanin and proliferating cell nuclear antigen (PCNA). The nuclei were stained with the Hoechst fluorochrome. If supplemented with VEGF-C or VEGF, the cells were stained for PCNA. Immunofluorescence double-staining of non-sorted cells or VEGFR-3 negative and VEGFR-3 positive cell populations with antibodies against podoplanin or VEGFR-3 also was performed.

The next assay addresses T1, hVEGFR-3 (Homo sapiens, UniProt P35916).
T1 construct: Ig (immunoglobulin fusion partner); made in house
T1 sequence (P35916 25-775 limits assumed): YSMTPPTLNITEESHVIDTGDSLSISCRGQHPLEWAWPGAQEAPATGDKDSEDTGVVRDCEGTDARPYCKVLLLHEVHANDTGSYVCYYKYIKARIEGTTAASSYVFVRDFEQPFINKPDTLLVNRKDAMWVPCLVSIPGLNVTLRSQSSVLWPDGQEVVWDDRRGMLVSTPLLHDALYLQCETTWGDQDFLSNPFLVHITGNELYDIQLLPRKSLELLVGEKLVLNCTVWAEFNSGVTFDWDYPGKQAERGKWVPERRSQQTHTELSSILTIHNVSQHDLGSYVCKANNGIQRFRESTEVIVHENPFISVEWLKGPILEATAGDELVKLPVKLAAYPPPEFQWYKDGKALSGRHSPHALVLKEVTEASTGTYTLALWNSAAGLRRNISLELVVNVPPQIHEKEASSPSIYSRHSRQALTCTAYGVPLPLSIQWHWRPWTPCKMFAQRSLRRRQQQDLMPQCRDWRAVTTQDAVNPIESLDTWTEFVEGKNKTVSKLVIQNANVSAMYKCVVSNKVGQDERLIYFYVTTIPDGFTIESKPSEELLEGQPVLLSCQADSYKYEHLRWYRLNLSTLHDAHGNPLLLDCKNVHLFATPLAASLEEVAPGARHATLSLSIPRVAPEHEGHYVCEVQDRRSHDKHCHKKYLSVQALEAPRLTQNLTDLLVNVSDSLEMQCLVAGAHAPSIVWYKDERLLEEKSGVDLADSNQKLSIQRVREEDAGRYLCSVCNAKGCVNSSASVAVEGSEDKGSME
The assay can be described thus: Biosensor (BIAcore) analysis of ligand binding to immobilized VEGFR-3. Conditions: hVEGFR-3 bivalent immunoglobulin fusion protein immobilized; global fitting, 1:1 Langmuirian model with mass transfer. As for the experimental part:
Biosensor Analysis. All preparations were analysed for homogeneity and buffer exchanged by micropreparative size exclusion HPLC using a Superose 12 (3.2/30) column installed in a SMART system (Amersham Pharmacia Biotech, Uppsala, Sweden) immediately prior to use (Nice and Catimel, Bioessays, 21:339-352, 1999). The concentrations of VEGF-C and VEGF-D were determined by absorbance at 280 nm using E280 1% 1 cm of 0-65. Receptor domains were coupled to the carboxymethylated dextran layer of a CM5 sensor chip using standard amine coupling chemistry (Nice and Catimel, Bioessays, 21:339-352, 1999) for analysis of ligad binding using a BIAcore 2000 optical biosensor (BIAcore, Uppsala, Sweden). The levels immobilized were 3,000 RU and 7,000 RU for VEGFR-2 and VEGFR-3, respectively. […] The apparent binding affinities of VEGF-C and VEGF-C156S to receptor domains were determined by analysis of the initial dissociation phase to obtain the kd, which was then used to constrain a global analysis of the association region of the curves, assuming a 1:1 Langmuirian model. Data were analysed using BLAevaluation 3.0 (BIAcore, Uppsala, Sweden) as described previously (Catimel et al., J. Chromatogr., 776:15-30, 1997). […]

Another assay concerns the target T2, hVEGFR-2 (Homo sapiens, UniProt P35968).
T2 construct: Receptor domains were coupled to the carboxymethylated dextran layer of a CM5 sensor chip
Briefly: Biosensor (BIAcore) analysis of ligand binding to immobilized VEGFR-2. Conditions: hVEGFR-2 bivalent immunoglobulin fusion protein immobilized; global fitting, 1:1 Langmuirian model with mass transfer. On the procedure: Biosensor Analysis. All preparations were analysed for homogeneity and buffer exchanged by micropreparative size exclusion HPLC using a Superose 12 (3.2/30) column installed in a SMART system (Amersham Pharmacia Biotech, Uppsala, Sweden) immediately prior to use (Nice and Catimel, Bioessays, 21:339-352, 1999). The concentrations of VEGF-C and VEGF-D were determined by absorbance at 280 nm using E280 1% 1 cm of 0-65. Receptor domains were coupled to the carboxymethylated dextran layer of a CM5 sensor chip using standard amine coupling chemistry (Nice and Catimel, Bioessays, 21:339-352, 1999) for analysis of ligad binding using a BIAcore 2000 optical biosensor (BIAcore, Uppsala, Sweden). The levels immobilized were 3,000 RU and 7,000 RU for VEGFR-2 and VEGFR-3, respectively. Following immobilization, residual activated ester groups were blocked by treatment with 1 M ethanolamine hydrochloride pH 8.5 followed by washing with 10 mM diethylamine to remove non-covalently bound material. 10 mM diethylamine or 10 mM HCl was used to regenerate the sensor surface between analyses for VEGF-D or VEGF-C binding, respectively. Samples were diluted in running buffer (10 mM HEPES pH 7.4, 150 mM NaCl, 3.4 mM EDTA, 0.005% Tween 20). The apparent binding affinities of VEGF-C and VEGF-C156S to receptor domains were determined by analysis of the initial dissociation phase to obtain the kd, which was then used to constrain a global analysis of the association region of the curves, assuming a 1:1 Langmuirian model. Data were analysed using BLAevaluation 3.0 (BIAcore, Uppsala, Sweden) as described previously (Catimel et al., J. Chromatogr., 776:15-30, 1997).
Biosensor analysis was used to further investigate the interactions of VEGF-C and VEGF-C156S with VEGFR-2 and VEGFR-3. Analysis of the biosensor binding curves confirmed that VEGF-C156S binds only to the extracellular domain of VEGFR-3, whereas wild type VEGF-C bound to both VEGFR-2 and VEGFR-3 receptors (FIG. 1D-FIG. 1G). […] However, in both assays the affinity of VEGF-C was higher towards VEGFR-3 than towards VEGFR-2.

T2 sequence (P35968 20-764 limits assumed): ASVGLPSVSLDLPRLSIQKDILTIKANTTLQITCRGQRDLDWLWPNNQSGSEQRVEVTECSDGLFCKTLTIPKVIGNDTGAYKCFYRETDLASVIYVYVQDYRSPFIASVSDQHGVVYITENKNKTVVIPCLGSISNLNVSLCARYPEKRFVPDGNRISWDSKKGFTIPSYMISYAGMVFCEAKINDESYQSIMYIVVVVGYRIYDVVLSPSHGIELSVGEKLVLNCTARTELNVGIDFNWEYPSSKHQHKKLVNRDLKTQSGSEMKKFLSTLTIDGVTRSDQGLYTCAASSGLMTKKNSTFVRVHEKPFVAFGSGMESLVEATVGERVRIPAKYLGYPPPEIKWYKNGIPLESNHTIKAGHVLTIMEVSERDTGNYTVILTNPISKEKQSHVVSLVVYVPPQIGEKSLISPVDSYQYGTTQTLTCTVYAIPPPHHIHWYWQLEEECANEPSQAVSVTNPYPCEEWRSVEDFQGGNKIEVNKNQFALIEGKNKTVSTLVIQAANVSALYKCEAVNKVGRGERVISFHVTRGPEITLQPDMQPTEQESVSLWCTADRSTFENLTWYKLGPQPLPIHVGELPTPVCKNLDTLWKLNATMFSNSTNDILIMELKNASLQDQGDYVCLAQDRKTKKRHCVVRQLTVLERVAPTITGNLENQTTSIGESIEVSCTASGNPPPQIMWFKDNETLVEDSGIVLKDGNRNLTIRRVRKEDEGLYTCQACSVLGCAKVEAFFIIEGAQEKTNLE

As to VEGF, in assay [1], the “proliferation of isolated podoplanin positive cells” value is listed as “most of the podoplanin positive cells proliferated readily”.

B1: VEGF-C156S: VEGFR-3 specific mutant form of VEGF-C, cysteine 156 changed into serine; recombinant human (Thr103 to Ile225) (protein, UniProt P49767 103-225, looked up, variant C156S)
chain: TEETIKFAAAHYNTEILKSIDNEWRKTQCMPREVCIDVGKEFGVATNTFFKPPSVSVYRCGGCCNSEGLQCMNTSTSYLSKTLFEITVPLSQGPKPVTISFANHTSCRCMSKLDVYRQVHSII
On to B1, for which, in the assay with hVEGFR-3, the Ka was 3500 M⁻¹ s⁻¹. In the assay with hVEGFR-2, the KD result was “no binding”, the Ka entry is reported as “no binding” and the Kd result is given as “no binding”.
